Measured values as given in paper PMC12871931 (2025).
Ends that are not written are not given here. * marks the point of attachment. 5‑TAMRA = 5-carboxytetramethylrhodamine, N-terminal label, CN(C)c1ccc2c(-c3ccc(C(=O)*)cc3C(=O)[O-])c3ccc(N(C)C)cc3[o+]c2c1

Assays:
Test in all cases: FP
[1] = molecular target: importin α3 (IMPα3), Arabidopsis thaliana, recombinant (Arabidopsis thaliana, UniProt O04294 1-531)
[2] = molecular target: importin α2 (IMPα2), Arabidopsis thaliana, recombinant (Arabidopsis thaliana, UniProt F4JL11 1-535)
[3] = molecular target: importin α1 (IMPα1), Arabidopsis thaliana, recombinant (Arabidopsis thaliana, UniProt Q96321 1-532)
importin α1 (IMPα1), Arabidopsis thaliana, recombinant, sequence (Q96321 whole entry): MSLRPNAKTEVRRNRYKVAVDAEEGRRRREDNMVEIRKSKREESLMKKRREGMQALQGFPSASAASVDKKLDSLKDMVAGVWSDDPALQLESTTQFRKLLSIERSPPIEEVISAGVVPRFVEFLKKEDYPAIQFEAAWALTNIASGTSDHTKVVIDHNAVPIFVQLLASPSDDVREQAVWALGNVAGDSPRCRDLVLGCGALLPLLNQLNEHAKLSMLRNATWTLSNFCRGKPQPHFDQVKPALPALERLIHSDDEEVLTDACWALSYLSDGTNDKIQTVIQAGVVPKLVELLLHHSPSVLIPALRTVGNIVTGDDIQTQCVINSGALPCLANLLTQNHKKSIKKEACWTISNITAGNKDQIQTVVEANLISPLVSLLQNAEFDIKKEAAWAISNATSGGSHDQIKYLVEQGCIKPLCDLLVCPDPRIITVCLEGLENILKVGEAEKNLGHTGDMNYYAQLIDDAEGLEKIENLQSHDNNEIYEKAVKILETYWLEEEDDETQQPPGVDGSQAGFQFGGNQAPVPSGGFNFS

importin α2 (IMPα2), Arabidopsis thaliana, recombinant, sequence (F4JL11 whole entry): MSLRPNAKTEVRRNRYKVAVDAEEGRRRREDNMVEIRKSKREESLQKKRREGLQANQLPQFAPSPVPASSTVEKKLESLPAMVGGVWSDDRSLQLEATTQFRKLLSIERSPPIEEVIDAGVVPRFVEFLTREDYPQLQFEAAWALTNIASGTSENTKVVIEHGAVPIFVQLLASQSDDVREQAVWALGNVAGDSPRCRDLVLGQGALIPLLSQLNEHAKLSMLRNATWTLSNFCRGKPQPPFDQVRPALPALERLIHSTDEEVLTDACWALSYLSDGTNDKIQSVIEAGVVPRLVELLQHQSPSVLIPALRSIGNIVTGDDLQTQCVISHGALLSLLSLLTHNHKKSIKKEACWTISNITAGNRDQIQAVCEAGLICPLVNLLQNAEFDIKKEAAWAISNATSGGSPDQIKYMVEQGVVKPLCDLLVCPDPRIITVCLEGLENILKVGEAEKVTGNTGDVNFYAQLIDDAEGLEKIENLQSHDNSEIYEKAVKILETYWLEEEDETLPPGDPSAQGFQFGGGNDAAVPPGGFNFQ
importin α3 (IMPα3), Arabidopsis thaliana, recombinant, sequence (O04294 whole entry): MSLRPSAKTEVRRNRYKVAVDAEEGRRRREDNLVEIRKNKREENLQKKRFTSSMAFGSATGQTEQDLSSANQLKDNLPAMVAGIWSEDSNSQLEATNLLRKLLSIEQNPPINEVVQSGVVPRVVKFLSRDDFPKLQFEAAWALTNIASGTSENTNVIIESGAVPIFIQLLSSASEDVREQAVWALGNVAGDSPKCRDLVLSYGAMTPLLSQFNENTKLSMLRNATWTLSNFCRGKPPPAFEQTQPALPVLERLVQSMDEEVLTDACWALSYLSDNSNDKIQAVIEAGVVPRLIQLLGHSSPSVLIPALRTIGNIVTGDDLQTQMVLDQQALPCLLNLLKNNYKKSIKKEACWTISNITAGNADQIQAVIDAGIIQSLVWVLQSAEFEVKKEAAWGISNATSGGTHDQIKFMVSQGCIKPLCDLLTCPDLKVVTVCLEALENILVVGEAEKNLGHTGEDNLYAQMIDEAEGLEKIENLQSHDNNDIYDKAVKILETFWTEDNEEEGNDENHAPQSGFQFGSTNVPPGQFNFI

B1: TAMRA‐NOP‐1 (EIN2 NLS peptide, N‐terminally labeled with 5‐TAMRA) (peptide)
peptide: {5‑TAMRA}-LKRYKRRL
Kd [1]: 5.4 µM | Kd [2]: 5.8 µM | Kd [3]: 4.6 µM
